Measured values published in paper PMC6919976.

Target: ribosomes isolated from wildtype CHO cells (hamster (endogenous in CHO))

## GCN2, StrepII-tagged, purified from Sf9 cells (from UniProt Q9P2K8 1-1649) (enzyme)
  rate of phosphorylation of eIF2α (2 µM) by GCN2 in vitro, with wildtype ribosomes against none: 10 fold
